Experimental data published in PMC4421837.
Several values for one entry are separate records, joined by “and”; a condition that tells them apart may be missing. Identical values can stand only once. Each block holds one substance with its values, some of them ahead of it.

Legend:
[1] = target: K18-ΔK280, labelled with AlexaFluor-488 or AlexaFluor-647; test: FRET or BRET; single-molecule FRET of oligomers during aggregation: equimolar A488- and A647-labelled construct, 10 uM in all, 50 mM ammonium acetate pH 7.0, 37 °C, undisturbed, heparin (MW 3000) at 1:4 molar ratio; aliquots diluted 50,000-fold into the same buffer with 0.1 mg/ml BSA and 2.5 uM heparin, measured under flow in a microfluidic channel; bursts in the acceptor channel counted as oligomers
[2] = target: K18 tau construct (K18-C291A/C322A/I260C), labelled with AlexaFluor-488 or AlexaFluor-647; test: FRET or BRET; single-molecule FRET of species released from washed A488/A647-K18 filaments: pellet washed four times, fresh 50 mM ammonium acetate pH 7.0 added; aliquots diluted into the same buffer and measured on BSA-treated slides, no flow
[3] = target: K18 tau construct (K18-C291A/C322A/I260C), labelled with AlexaFluor-488 or AlexaFluor-647; test: FRET or BRET; single-molecule FRET of oligomers during aggregation: equimolar A488- and A647-labelled construct, 10 uM in all, 50 mM ammonium acetate pH 7.0, 37 °C, undisturbed, heparin (MW 3000) at 1:4 molar ratio; aliquots diluted 50,000-fold into the same buffer with 0.1 mg/ml BSA and 2.5 uM heparin, measured under flow in a microfluidic channel; bursts in the acceptor channel counted as oligomers
[4] = target: K18-P301L, labelled with AlexaFluor-488 or AlexaFluor-647; test: as above

fold more oligomers at peak than for K18 [1]: 50 fold
percent of detected species that are oligomers (at peak, 0.5 h) [1]: 4%
Substance: K18-ΔK280, labelled with AlexaFluor-488 or AlexaFluor-647 (domain or fragment)

percent of soluble tau that is oligomeric (immediately after dilution of filaments) [2]: 0.6 to 3%
oligomer concentration (typical) [3]: 5 nM
percent of detected soluble species that are oligomers (after 0.5 h) [3]: 0.1%
Substance: K18 tau construct (K18-C291A/C322A/I260C), labelled with AlexaFluor-488 or AlexaFluor-647 (domain or fragment)

peak oligomer concentration relative to K18-wt [4]: 4 fold and 3 fold
Substance: K18-P301L, labelled with AlexaFluor-488 or AlexaFluor-647 (domain or fragment)
